Test [1] has as its target HLA-B*40:02. Briefly: IEDB peptide-MHC binding, cellular MHC/competitive/fluorescence; ≥ and ≤ were set here for values at or beyond the usual limits of such assays. To be noted: source organism: Homo sapiens.
The target in test [2] is HLA-A*26:03. Description: IEDB peptide-MHC binding, purified MHC/competitive/fluorescence; filed as Kd, often an IC50 or EC50 that approximates it; ≥ and ≤ were set here for values at or beyond the usual limits of such assays. To be noted: source organism: Vibrio cholerae 2740-80.
In test [3] the target is HLA-A*30:01. The test is described as above.
Test [4] deals with HLA-B*15:17. Described as above. The following applies: source organism: Vibrio cholerae 2740-80.
Test [5] deals with HLA-B*18:01. Briefly: IEDB peptide-MHC binding, purified MHC/direct/fluorescence; filed as Kd, often an IC50 or EC50 that approximates it; ≥ and ≤ were set here for values at or beyond the usual limits of such assays.
The target in test [6] is HLA-B*27:05. The test is described as above.
The target of test [7] is HLA-A*26:01. The test is described as above.
Test [8] concerns the target HLA-A*01:01. The description is as above.
Test [9] concerns the target HLA-B*08:01. The test is described as above. To be noted: source organism: Vibrio cholerae V52.
For test [10], the target named is HLA-B*46:01. Described as above. To be noted: source organism: Vibrio cholerae.
The target of test [11] is HLA-A*31:01. The test is described as above.
Test [12] concerns the target HLA-A*11:01. The description is as above. To be noted: source organism: Vibrio cholerae.
In test [13] the target is HLA-A*68:02. The description is as above. The following applies: source organism: Vibrio cholerae.
Test [14] concerns the target HLA-A*26:02. The description is as above. To be noted: source organism: Vibrio cholerae V52.
Test [15] concerns the target HLA-B*48:01. The test is described as above. The following applies: source organism: Vibrio cholerae.
In test [16] the target is HLA-B*08:02. Described as above. To be noted: source organism: Vibrio cholerae V52.
In test [17] the target is HLA-A*02:01. The description is as above. To be noted: source organism: Vibrio cholerae.
The target in test [18] is HLA-B*58:01. Described as above.
Test [19] addresses HLA-B*40:01. The description is as above. To be noted: source organism: Vibrio cholerae.
The target in test [20] is HLA-B*57:01. The test is described as above.
Test [21] deals with HLA-B*07:02. Described as above. The following applies: source organism: Vibrio cholerae.
For test [22], the target named is HLA-A*03:01. The test is described as above. The following applies: source organism: Vibrio cholerae.
Test [23] addresses HLA-B*15:01. Described as above. To be noted: source organism: Vibrio cholerae.
The target in test [24] is HLA-C*06:02. Briefly: IEDB peptide-MHC binding, purified MHC/competitive/fluorescence; filed as Kd, often an IC50 or EC50 that approximates it; ≥ and ≤ were set here for values at or beyond the usual limits of such assays. To be noted: source organism: Yersinia pestis KIM10+.
Test [25] has as its target HLA-B*27:20. The description is as above. The following applies: source organism: Yersinia pestis KIM10+.
Test [26] has as its target HLA-A*11:01. Described as above. To be noted: source organism: Yersinia pestis KIM10+.
The target in test [27] is HLA-A*68:02. The description is as above. The following applies: source organism: Yersinia pestis KIM10+.
Test [28] has as its target HLA-A*02:06. The test is described as above. The following applies: source organism: Yersinia pestis KIM10+.
In test [29] the target is HLA-A*02:03. Described as above. The following applies: source organism: Yersinia pestis KIM10+.
For test [30], the target named is HLA-B*45:06. The test is described as above. To be noted: source organism: Yersinia pestis KIM10+.
In test [31] the target is HLA-B*15:42. Described as above. To be noted: source organism: Yersinia pestis KIM10+.
Test [32] concerns the target HLA-A*02:01. Described as above. The following applies: source organism: Yersinia pestis KIM10+.
Test [33] addresses HLA-B*07:02. The test is described as above. The following applies: source organism: Yersinia pestis KIM10+.
For test [34], the target named is HLA-B*39:01. Described as above. The following applies: source organism: Yersinia pestis KIM10+.
In test [35] the target is HLA-B*15:01. The description is as above. To be noted: source organism: Yersinia pestis KIM10+.
In test [36] the target is HLA-B*83:01. Described as above. To be noted: source organism: Yersinia pestis KIM10+.
Test [37] addresses HLA-B*15:09. Briefly: IEDB peptide-MHC binding, purified MHC/direct/fluorescence; filed as Kd, often an IC50 or EC50 that approximates it; ≥ and ≤ were set here for values at or beyond the usual limits of such assays. The following applies: source organism: Yersinia pestis CA88-4125.
Test [38] has as its target HLA-B*73:01. The description is as above. To be noted: source organism: Yersinia pestis CA88-4125.
The mark [39] stands for this setting: source organism: Vibrio cholerae.
Setting [40] is: source organism: Yersinia pestis.

As a reminder, the IC50 is the midpoint of a concentration-inhibition curve. In general, Kd refers to the equilibrium constant for the complex coming apart.

In test [1], REASPSRLS displayed an IC50 of 1.9 µM.
Still for that read-out and setting: in the case of REFSKEPEL it was 0.8 µM.
Take AADFPGIAR: the dissociation constant (Kd) in test [2] is ≥ 20 µM; in [3] (source organism: Vibrio cholerae 2740-80), 2.11 µM; in [4], ≥ 20 µM; in test [5] (setting [39]), ≥ 20 µM; in test [6] (setting [39]) it was ≥ 20 µM; in test [7] (source organism: Vibrio cholerae V52) it was ≥ 20 µM. Moreover, the Kd in [8] (setting [39]) was ≥ 20 µM; in test [9], ≥ 20 µM; in test [10] it was ≥ 20 µM; in test [11] (setting [39]), 6.3 µM; in test [12], 0.164 µM; in test [13] it was ≥ 20 µM. Moreover, the equilibrium dissociation constant (Kd) in test [14], in [15], in [16], in test [17], in test [18] (setting [39]) and in [19] was ≥ 20 µM each time. Moreover, the Kd in test [20] (setting [39]) was ≥ 20 µM; in test [21] it was ≥ 20 µM; in test [22], 1 µM; in [23], ≥ 20 µM.
With SRWAISHWL, the dissociation constant Kd in test [24] was 0.0822 µM; in test [25], 0.0048 µM; in test [26], ≥ 20 µM; in [27], ≥ 20 µM; in [28], 0.0086 µM; in test [29], 0.205 µM. Moreover, the Kd was ≥ 5 µM in [30]; ≥ 5 µM in test [31]; 0.0762 µM in test [32]; 2.69 µM in test [3] (source organism: Yersinia pestis KIM10+); ≥ 20 µM in test [33]; 0.0363 µM in test [34]. For the same sequence, the Kd in [35] was 1.84 µM; in test [36], ≥ 5 µM; in [5] (setting [40]) it was ≥ 20 µM; in [6] (setting [40]), 0.0203 µM; in [7] (source organism: Yersinia pestis CA88-4125), ≥ 20 µM; in [8] (setting [40]) it was ≥ 20 µM. Moreover, the Kd was ≥ 20 µM in [11] (setting [40]); ≥ 20 µM in [37]; 0.167 µM in test [38]; ≥ 20 µM in test [18] (setting [40]); ≥ 20 µM in test [20] (setting [40]).
